Experimental findings from patent US20230192833A1 are described below.

The assay has as its target human VEGFC (Vascular endothelial growth factor C) (human) (UniProt P49767). Briefly: cell-based or functional assay.

B1: 1E9 antibodies (monoclonal anti-VEGFC antibodies of the 1E9 hybridoma) (antibody, V domains shown)
VH: QAQLRQPGAELVKPGASVKLSCKASGYTFISYWMHWVKQRPGQGLEWIGEINPSNGRTNYNEKFKSKATLTVDRSSSTAYMQLSSLTSEDSAVYYCASTSLFYYAMNYWGQGTSVTVSS
VL: DVVMTQTPLSLTVSLGDQASISCRSSQSLVHSNGNTYLHWYLQKPGQSPKLLIYKVFNRLSGVPDRFSGSGSGTDFTLKISRVEAEDLGVYFCSQNTHVPWTFGGGTKLEIK
For the molecule B1, the decrease in proliferation of cancer cells (MTT assay, A498, 786-O, MDA-MB231, 48 h) was 40%.
